Experiments:
[1] = target: human claudin 18 isoform 2 (claudin 18.2) (human); test: immunofluorescence imaging on CHO-Claudin18.2 cells, serial dilution of antibody; table drawn under the curves (run with Hu-2, Hu-9, Hu-10)
[2] = target: human claudin 18 isoform 2 (claudin 18.2) (human); test: immunofluorescence imaging, CHO-CLDN18.2 cells (FIG. 3B)
[3] = target: human claudin 18 isoform 2 (claudin 18.2) (human); test: cell-based or functional assay

Chain of PC1 (in-house positive control CLDN18.2-specific antibody zolbetuximab) (VH): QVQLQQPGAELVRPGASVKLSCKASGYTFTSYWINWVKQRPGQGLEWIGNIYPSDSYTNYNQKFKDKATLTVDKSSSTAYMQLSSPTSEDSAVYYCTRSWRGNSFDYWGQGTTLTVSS
Chain of PC1 (in-house positive control CLDN18.2-specific antibody zolbetuximab) (VL): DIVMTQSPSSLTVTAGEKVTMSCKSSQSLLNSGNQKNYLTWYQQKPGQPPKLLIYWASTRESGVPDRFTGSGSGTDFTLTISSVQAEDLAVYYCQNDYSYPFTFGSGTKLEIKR

PC1 (in-house positive control CLDN18.2-specific antibody zolbetuximab)
EC50 [1]: 3.2 nM
EC50 [2]: 3.2 nM
ADCC EC50, similar assay with human effector cells (data not shown) [3]: 0.66 nM

Source: patent publication US20230067757A1
